{"source": "paper PMC10693601", "target": "AIM2 (Absent In Melanoma 2), full length, without MBP tag, labeled with Alexa Fluor 488 (human) (UniProt O14862)", "assay": "single-molecule confocal fluorescence microscopy with optical tweezers; Alexa 488-labeled protein (~0.2-14 nM) in the protein channel, on a single biotinylated lambda-phage dsDNA (48.5 kbp) tethered between two optically trapped streptavidin beads; 2D scans, movies and kymographs; oligomer size from photon counts (11 per fluorophore); 20 mM HEPES pH 7.5, 160 mM KCl, 1 mM BME, 0.1% Triton X-100, 5% glycerol; room temperature", "note": "“And” between values parts separate entries of the source, which are not always exact repeats. Identical values can stand only once."}
{"substance": "AIM2 (Absent In Melanoma 2), full length, without MBP tag, labeled with Alexa Fluor 488 (from UniProt O14862 1-343) (natural protein)", "values": [{"measurement": "oligomer growth rate (highest observed)", "value": "< 28", "unit": "molecules/s"}, {"measurement": "oligomer growth rate (oligomers of 1-20 molecules, low nanomolar)", "value": "0.2 to 7", "unit": "molecules/s"}, {"measurement": "oligomer growth rate at 0.5 nM AIM2", "value": 7.4, "unit": "s⁻¹"}, {"measurement": "oligomer growth rate at 1 nM AIM2 (bottom kymograph, dimer to hexamer)", "value": 94, "unit": "s⁻¹"}, {"measurement": "oligomer growth rate at 1 nM AIM2 (middle kymograph, starting from a monomer)", "value": 5.8, "unit": "s⁻¹"}, {"measurement": "oligomer growth rate at 2 nM AIM2", "value": 10.7, "unit": "s⁻¹"}, {"measurement": "oligomer growth rate at 2 nM AIM2 (4 to 6 molecules)", "value": 11.4, "unit": "s⁻¹"}, {"measurement": "oligomer growth rate at 10 nM AIM2 (4 to 11 molecules)", "value": 25.3, "unit": "s⁻¹"}, {"measurement": "oligomer growth rate at 10 nM AIM2 (top kymograph)", "value": 302, "unit": "s⁻¹"}, {"measurement": "oligomer growth rate at 13.5 nM AIM2", "value": 34, "unit": "s⁻¹"}, {"measurement": "stoichiometry N", "value": "< 25 molecules and 13 molecules to 15 molecules (2×)"}]}
